Assay results: publication PMC11095456

Each substance was assayed against CTBP2 MAPPIT prey, wild type (UniProt P56545) (assay: MAPPIT). Conditions: HEK293T cells; +Epo; cotransfected with CTBP2; parent: est. 32; read off a plot; scale: % of maximum induction.

Substance | response
EVI1 MAPPIT bait, wild type PLDLS SWAP | 5
EVI1 MAPPIT bait, wild type PLDLS>PLASS | 3
EVI1 MAPPIT bait, wild type PFDLT SWAP | 3
EVI1 MAPPIT bait, wild type PFDLT>PFAST | 30

What follows are substances tested against EVI1 MAPPIT bait, wild type (assay: MAPPIT). Conditions: HEK293T cells; +Epo; cotransfected with EVI1; parent: est. 29; read off a plot; scale: % of maximum induction.

Substance | response
CTBP2 MAPPIT prey, wild type (from UniProt P56545) V72R | 11
CTBP2 MAPPIT prey, wild type (from UniProt P56545) A58E | 29
CTBP2 MAPPIT prey, wild type (from UniProt P56545) A58E; V72R | 10
